Experimental findings from US20110009283A1 are described below.

Test [1] has as its target KcsA-Kv1.3 (KcsA carrying a segment of the Kv1.3 pore loop).
Test [2] shares this target. Kind of test: phage library panning on immobilized KcsA-1.3.
In test [3] the target is Kv1.3 K+ channel, wild-type, expressed in cells (species not stated) (Homo sapiens (Human)) (UniProt P22001). Kind of test: panning of a 2:2:96 phage mixture on HEK cells expressing Kv1.3.
Target sequence in this assay (P22001 whole entry, form in doubt): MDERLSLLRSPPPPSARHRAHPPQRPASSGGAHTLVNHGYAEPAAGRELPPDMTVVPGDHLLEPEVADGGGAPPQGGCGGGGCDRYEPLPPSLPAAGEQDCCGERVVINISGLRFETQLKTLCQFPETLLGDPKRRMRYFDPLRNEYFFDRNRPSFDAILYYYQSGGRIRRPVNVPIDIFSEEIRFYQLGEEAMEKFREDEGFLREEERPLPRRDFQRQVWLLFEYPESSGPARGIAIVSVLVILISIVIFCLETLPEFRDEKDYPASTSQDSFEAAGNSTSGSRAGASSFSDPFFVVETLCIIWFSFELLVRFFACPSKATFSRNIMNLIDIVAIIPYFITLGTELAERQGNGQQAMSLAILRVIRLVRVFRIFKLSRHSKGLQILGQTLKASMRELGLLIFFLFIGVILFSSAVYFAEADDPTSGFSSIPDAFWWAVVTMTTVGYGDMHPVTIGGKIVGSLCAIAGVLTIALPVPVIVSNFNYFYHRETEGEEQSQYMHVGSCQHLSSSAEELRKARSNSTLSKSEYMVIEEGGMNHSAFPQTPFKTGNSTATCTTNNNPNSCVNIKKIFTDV
Test [4] deals with KcsA-Kv1.3 (KcsA carrying a segment of the Kv1.3 pore loop). This is another data set of the same source.
In test [5] the target is Rattus Kv1.2 (Rattus) (UniProt P63142). In words: two-electrode voltage clamp, kinetics of block in Xenopus oocytes. In general terms: Two-electrode voltage clamp is typically applied to oocytes expressing channels or transporters.
Test [6] has the same target. Kind of test: two-electrode voltage clamp, block of currents in Xenopus oocytes, dose-response fit.
Test [7] has as its target KcsA-Kv1.3 (KcsA carrying a segment of the Kv1.3 pore loop). The source holds these as a separate data set.
Test [8] concerns the target Kv1.3 K+ channel, wild-type, expressed in cells (species not stated) (Homo sapiens (Human)) (UniProt P22001). Kind of test: cell-based or functional assay.
In test [9] the target is KcsA-Kv1.3 (KcsA carrying a segment of the Kv1.3 pore loop). The source holds these as a separate data set.
Test [10] deals with Homo Kv1.3 (Homo) (UniProt P22001). Kind of test: two-electrode voltage clamp, block of currents in Xenopus oocytes, dose-response fit.
Test [11] addresses BK channel (species not stated). In words: cell-based or functional assay.
Test [12] concerns the target Homo Kv1.3 (Homo) (UniProt P22001). In words: cell-based or functional assay.
Test [13] has as its target Kv1.1 K+ channel (species not stated). In words: cell-based or functional assay.
In test [14] the target is Kv1.2 K+ channel (species not stated). Kind of test: cell-based or functional assay.

Where only a bound is given, the exact number is not on record here.

Chain of Rattus Kv1.2 (Rattus) (P63142 whole entry): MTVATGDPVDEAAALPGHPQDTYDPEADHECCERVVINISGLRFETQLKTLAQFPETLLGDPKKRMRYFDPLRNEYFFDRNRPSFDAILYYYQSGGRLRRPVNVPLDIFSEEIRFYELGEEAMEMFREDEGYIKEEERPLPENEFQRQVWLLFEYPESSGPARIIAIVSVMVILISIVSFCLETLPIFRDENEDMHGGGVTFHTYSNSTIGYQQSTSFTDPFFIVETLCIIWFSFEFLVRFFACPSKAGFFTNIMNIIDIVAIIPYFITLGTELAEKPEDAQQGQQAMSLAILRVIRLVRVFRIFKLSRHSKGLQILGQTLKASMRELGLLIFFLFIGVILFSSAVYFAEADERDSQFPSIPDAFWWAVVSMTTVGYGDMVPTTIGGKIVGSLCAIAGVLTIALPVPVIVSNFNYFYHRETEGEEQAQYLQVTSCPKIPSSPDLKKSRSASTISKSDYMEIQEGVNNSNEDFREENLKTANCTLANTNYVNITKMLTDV
Chain of Homo Kv1.3 (Homo) (P22001 whole entry): as the sequence (P22001 whole entry, form in doubt) above

For “fasciculin-2 phage (from UniProt P0C1Z0 1-61) (peptide)”, the Output (% Ligands) in test [1] came to 0%.
The same measure, in the same setting: the figure for “Dendroaspis natriuretic peptide (DNP) phage (from UniProt P28374 1-38)” is 0%.
As for mokatoxin-1-phage (peptide), in test [2], the % of the eluted phage after two rounds of panning is 16.6%. Further, the % of phages after the 2nd panning in [3] came out at 15%. In test [4], this substance gave a % of the phage isolated after two rounds of selection of 60%.
As for “mokatoxin-1 (MK-1), synthesized peptide (peptide; other documents disagree on this pair)”, in the test with Rattus Kv1.2 (Rattus) [5], the koff (usually the first-order rate constant of dissociation) stood at 0.16 s⁻¹ and the kon (as a rule, the second-order rate constant of association) is 260000 M⁻¹ s⁻¹. The Ki (usually the dissociation constant of the complex between target and ligand, obtained from inhibition or displacement) with Rattus Kv1.2 (Rattus) [6] turned out to be 0.62 µM.
Take “Shk phage (sea anemone K+ channel toxin ShK on phage) (peptide)”: in [7], the % phages, OUTPUT is 20%.
Consider “Ce3 (Centruroides elegans toxin Ce3) (peptide)”, for which the approximate IC50 (nM) of channel block in test [8] came to 366 nM.
Regarding “Kaliotoxin-1 phage (KTX-phage) (peptide)”, in [1], the Output (% Ligands) is 100%. Also, in test [9], the Fold Enrichment came to 3.6 fold.
In the test with Homo Kv1.3 (Homo) [10], mokatoxin-1 (MK-1), synthesized peptide displayed a Ki of 0.001 µM. Also, the approximate IC50 (nM) of channel block in test [11] was more than 1000 nM; in test [13] it was more than 1000 nM; in test [14] it was 680 nM; in test [8], 3 nM. In addition, the decrease in IL-2 secretion by CD3/CD28-activated human T cells at 10 nM with Homo Kv1.3 (Homo) [12] turned out to be 50%. Moreover, in the test with Homo Kv1.3 (Homo) [12], the decrease in TNF-α secretion by CD3/CD28-activated human T cells at 10 nM turned out to be 50%. Besides, the lowest concentration inhibiting cytokine secretion by T cells in the test with Homo Kv1.3 (Homo) [12] stood at 1 nM.
